Reference: publication PMC3877120, “Pentavalent Single-Domain Antibodies Reduce Campylobacter jejuni Motility and Colonization in Chickens” (PLoS ONE, 2013)

Experiments:
[1] = molecular target: T1, C. jejuni 81–176 flagella (Campylobacter jejuni strain 81–176, biotin (Sulfo-NHS-LC-LC-biotin), in the SPR only | biotin (Sulfo-NHS-LC-LC-biotin), in the SPR only); experiment: ELISA; C. jejuni 81–176 flagella coated on Maxisorp plates (5 µg/ml in PBS); monomeric or pentameric VHH at 10 to 0.0001 µg/ml, 1 h at 37°C; detected with anti-His6-HRP; concentration of 50% maximum binding; conditions: both partners purified
T1 construct: flagellin FlaA of C. jejuni strain 81–176; flagellin FlaB of C. jejuni strain 81–176; also called flagellin; flagella protein; source: purified from C. jejuni 81–176 (sheared, ultracentrifugation, 1% SDS wash); also on formalin-fixed C. jejuni 81–176 cells
T1 chain 1: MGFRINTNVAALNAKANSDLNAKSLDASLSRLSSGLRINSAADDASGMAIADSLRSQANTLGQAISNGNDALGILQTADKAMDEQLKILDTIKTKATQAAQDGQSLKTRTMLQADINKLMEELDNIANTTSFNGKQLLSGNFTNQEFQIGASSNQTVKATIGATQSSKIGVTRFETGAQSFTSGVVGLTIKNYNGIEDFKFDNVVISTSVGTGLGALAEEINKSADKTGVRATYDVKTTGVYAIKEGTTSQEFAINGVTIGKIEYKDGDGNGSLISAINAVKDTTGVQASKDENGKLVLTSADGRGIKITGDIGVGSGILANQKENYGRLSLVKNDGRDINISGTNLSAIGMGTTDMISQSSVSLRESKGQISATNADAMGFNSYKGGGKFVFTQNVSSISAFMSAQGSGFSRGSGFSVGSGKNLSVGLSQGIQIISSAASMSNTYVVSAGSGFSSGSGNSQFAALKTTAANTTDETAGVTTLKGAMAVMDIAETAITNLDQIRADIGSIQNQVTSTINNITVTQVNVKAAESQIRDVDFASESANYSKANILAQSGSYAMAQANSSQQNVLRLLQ
T1 chain 2: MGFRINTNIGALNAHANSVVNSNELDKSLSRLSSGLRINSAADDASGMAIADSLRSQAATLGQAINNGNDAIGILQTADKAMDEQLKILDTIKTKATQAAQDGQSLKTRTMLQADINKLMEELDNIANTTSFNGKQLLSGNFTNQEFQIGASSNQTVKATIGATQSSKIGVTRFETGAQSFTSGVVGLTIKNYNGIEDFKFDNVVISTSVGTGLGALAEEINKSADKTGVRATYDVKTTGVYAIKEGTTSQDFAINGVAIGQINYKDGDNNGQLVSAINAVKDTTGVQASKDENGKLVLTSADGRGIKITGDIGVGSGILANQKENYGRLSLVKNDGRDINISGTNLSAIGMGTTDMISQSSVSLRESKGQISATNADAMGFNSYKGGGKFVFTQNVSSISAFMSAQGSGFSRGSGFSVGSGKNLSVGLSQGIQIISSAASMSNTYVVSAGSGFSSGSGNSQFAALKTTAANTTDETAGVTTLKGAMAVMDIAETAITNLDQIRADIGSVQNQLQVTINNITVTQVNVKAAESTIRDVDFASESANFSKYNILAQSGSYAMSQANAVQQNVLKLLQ

[2] = molecular target: T1, C. jejuni 81–176 flagella; experiment: SPR; Biacore 3000; biotinylated flagella (700–900 RU) captured on an SA sensor chip; VHHs injected at 40 µl/min; 25°C; 10 mM HEPES pH 7.4, 150 mM NaCl, 3 mM EDTA, 0.005% P20; 1:1 interaction model; conditions: both partners purified

B1: FlagV1M (monomeric flagella-specific VHH FlagV1) (VHH)
VHH: QVKLEESGGGLVQAGGSRRLSCATSGLTFRNFHMAWFRQVAGKEREVVAAISWSRDRQYYPDPVKGRFTITRDNAKNTVYLQMNSLKPEDTAVYYCAARTASASGDWYKGSYQYWGQGTQVTVSS
notes: llama VHH from an immune phage display library; also called FlagV1 VHH; source: E. coli TG1, periplasm, purified (IMAC; Superdex 75 before SPR)
B1 was tested, and the EC50 [1] was 0.0156 µM, the Kd [2] was 0.02 µM and the koff [2] was 0.002 s⁻¹. For the same binder, the kon [2] was 100000 M⁻¹ s⁻¹.
